In patent publication US20120141441:

System: Cre recombinase (bacteriophage P1 ?)
Assay: cell_activity
Conditions: excision of reprogramming cassette in iPSC; typically 50% or more of clones; verified by Southern blot and PCR

“loxP sites flanking reprogramming cassette (p4FLR)” showed an activity (% clones with EGFP loss) greater than 50.
